Measurements taken from patent US8524227B2, “Anti-IL-TIF antibodies” (ZymoGenetics, Inc., priority 2002, dated 2013).
One block for each molecule: values may come before it.

How the values were obtained:
[1] = DSS-induced colitis mouse model; assay type: in vivo, mice; conditions: for histopathology screening score: 4% DSS in drinking water
Description: Colitis was induced by DSS ingestion in Swiss Webster female mice from Charles River Laboratories. The mice were 10 and 11 weeks old at the start of the study. Mice were given 4% DSS in the drinking water for a period of 6 days (treated mice), or were given only normal drinking water (control mice). A Disease Activity Index clinical score (DAI) was used, which comprises a combination of measurements including stool quality, occult blood and weight loss. DAI was obtained daily for each mouse beginning one day after DSS treatment. After 6 days, DSS was removed from the drinking water of the treated mice. All mice were monitored by DAI clinical score until sacrifice at either 2, 7 or 10 days from the start of the study. On each of days 2 and 7, four DSS-treated mice and one control mouse were sacrificed. On day 10, four DSS-treated mice and two control mice were sacrificed. For all animals after sacrifice, the colon length was measured. Colon sections were fixed in 10% neutral buffered formalin for histologic analysis or frozen for mRNA extraction.
Histologic index scores were obtained following the method in reference 1. Generally, the colon sections were scored blinded by a pathologist for crypt scores, hyperplastic epithelium, crypt distortion and inflammation.
Daily, each mouse was graded as to a clinical score based on weight loss, stool consistence and intestinal bleeding. Higher scores were assigned for increasing amounts of weight loss, diarrhea and bleeding. The daily score for each mouse was the mean grade obtained from the three results/observations.

K-562 cells = experiment: K-562 cytotoxicity assay (MTT); assay type: cell-based, human; conditions: 72 h
Protocol: The K-562 cell line (CRL-243, ATCC) has attained widespread use as a highly sensitive in vitro target for cytotoxicity assays. K-562 blasts are multipotential, hematopoietic malignant cells that spontaneously differentiate into recognizable progenitors of the erythrocytic, granulocytic and monocytic series (Lozzio, B B et al., Proc. Soc. Exp. Biol. Med. 166: 546-550, 1981).
K562 cells were plated at 5,000 cells/well in 96-well tissue culture clusters (Costar) in DMEM phenol-free growth medium (Life Technologies) supplemented with pyruvate and 10% serum (HyClone). Next day, human recombinant IL-TIF (Example 19), BSA control or retinoic acid (known to be cytotoxic to K562 cells) were added. Seventy-two hours later, the vital stain MTT (Sigma, St Louis, Mo.), a widely used indicator of mitochondrial activity and cell growth, was added to the cells at a final concentration of 0.5 mg/ml. MTT is converted to a purple formazan derivative by mitochondrial dehydrogenases. Four hours later, converted MTT was solubilized by adding an equal volume of acidic isopropanol (0.04N HCl in absolute isopropanol) to the wells. Absorbance was measured at 570 nm, with background subtraction at 650 nm. In this experimental setting, absorbance reflects cell viability. Results shown in Table 7 are expressed as % cytotoxicity.

IL-TIF [2] = target: T1, IL-TIF (Homo sapiens, UniProt Q9GZX6); experiment: Effect of zcytor16 on IL-TIF-induced acanthosis; assay type: in vivo, mice; conditions: for Average Acanthosis: day 8, score 0-3
T1 construct: made in house; host or cells: BHK cells
T1 sequence (Q9GZX6 34-179): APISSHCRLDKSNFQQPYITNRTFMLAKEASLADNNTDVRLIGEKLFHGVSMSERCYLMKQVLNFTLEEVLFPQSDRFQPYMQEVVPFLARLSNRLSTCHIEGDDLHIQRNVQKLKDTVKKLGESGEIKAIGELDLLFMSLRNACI
Protocol: Mice (female, C3H/HEJ, 8 weeks old; Jackson Labs, Bar Harbor, Me.) were divided into eight groups of eight animals each. IL-TIF was administered by constant infusion via mini-osmotic pumps, as described in example 32a. Alzet mini-osmotic pumps (model 2001; Alza corporation Palo Alto, Calif.) were loaded under sterile conditions with IL-TIF protein (A#601F, 0.22 mL) diluted in phosphate buffered saline (pH 7.0) to a concentration within the pump of 0.22 mg/mL for group 1-2 mice, 0.45 mg/mL for group 3-4 mice, 0.9 mg/mL for group 5-6 mice, or 0 mg/mL (diluent only) for group 7-8 mice. These pumps are designed to deliver their contents at a rate of 0.5 μl per hour over a period of 14 days. Using this nominal rate of infusion, dose levels were calculated to be […] and 0 μg/day for groups 7-8. For each pair of groups at a given dose level of IL-TIF, one of the groups was injected three times (days 1, 3, and 5) with 0.1 mg of human zcytor16 Fc protein (described herein) by the interperitoneal route. The other group was injected in the same fashion with vehicle (PBS).
On day 8 of the study, mice were euthanized and an approximately 1 cm square sample of skin surrounding the pump area was collected from each mouse. The skin was fixed in 10% neutral buffered formalin. Formalin fixed samples of skin were embedded in paraffin, routinely processed, sectioned at 5 um and stained with hematoxylin and eosin. The tissues were microscopically examined in blinded fashion by an ACVP board certified veterinary pathologist. This study was scored in a different manner than the previous example. The number of layers in the epidermis, from stratum basalis to stratum granulosum, was determined Based on the results, the sections were scored as follows: O-normal (2-3 layers), 1-mild thickening (3-4 layers), 2-moderate thickening (4-6 layers) and 3-severe thickening (>6 layers).

[3] = IL-TIF-induced acanthosis, subcutaneous mini-osmotic pump; assay type: in vivo, mice; conditions: for Average Acanthosis: score 0-4
Protocol: Mice (female, C3H/HEJ, 8 weeks old; Jackson Labs, Bar Harbor, Me.) were divided into three groups of six animals and one group of 4. Human BHK-produced IL-TIF was administered by constant infusion via mini-osmotic pumps, resulting in local and steady state serum concentrations proportional to the concentration of the IL-TIF contained in the pump. Alzet mini-osmotic pumps (model 2002; Alza corporation Palo Alto, Calif.) were loaded under sterile conditions with IL-TIF protein (A601F, 0.22 mL) diluted in phosphate buffered saline (pH 7.0) to a concentration within the pump of 2 mg/mL for group 1 mice, 0.2 mg/mL for group 2 mice, 0.02 mg/mL for group 3 mice, or 0 mg/mL (diluent only) for group 4 mice. Pumps were implanted subcutaneously in mice through a 1 cm incision in the dorsal skin, and the skin was closed with sterile wound closures. These pumps are designed to deliver their contents at a rate of 0.5 μl per hour over a period of 14 days. Using this nominal rate of infusion, dose levels were calculated to be 24 μg/day, 2.4 μg/day, 0.24 μg/day and 0 μg/day for groups 1-4, respectively.
At the end of the 14-day period, the mice were euthanized and an approximately 1 cm square sample of skin surrounding the pump area was collected from each mouse. The skin was fixed in 10% neutral buffered formalin. Formalin fixed samples of skin were embedded in paraffin, routinely processed, sectioned at 5 um and stained with hematoxylin and eosin. The tissues were microscopically examined in blinded fashion by an ACVP board certified veterinary pathologist. […] In addition, the skin of selected groups was imaged with a CoolSnap digital camera (Roper Scientific, Inc., San Diego, Calif.) and epidermal thickness measured using histomorphometry software (Scion Image for Windows, v. 4.02, Scion Corp., Frederick, Md.).

IL-TIF [4] = target: T2, IL-TIF (Homo sapiens, UniProt Q9GZX6); experiment: Inhibition of IL-TIF-induced proliferation of BaF3/CRF2-4/zcytor11 cells by soluble receptors; assay type: cell-based; conditions: 100 pg/ml IL-TIF
T2 sequence (Q9GZX6 13-179 limits assumed): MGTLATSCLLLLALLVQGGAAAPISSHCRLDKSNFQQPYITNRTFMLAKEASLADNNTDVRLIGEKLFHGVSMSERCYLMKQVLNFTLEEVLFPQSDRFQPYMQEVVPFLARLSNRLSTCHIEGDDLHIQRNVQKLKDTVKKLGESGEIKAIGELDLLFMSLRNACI
Protocol: BaF3/CRF2-4/zcytor11 cells described herein were spun down and washed in PBS 2 times to ensure the removal of the mIL-3, and then spun a third time and re-suspended in the complete media (RPMI 1640, 10% FBS, 1% GlutaMAX, 1% Sodium Pyruvate), but without mIL-3 (hereinafter referred to as “mIL-3 free media”). Cells were then counted in a hemocytometer. Cells were plated in a 96-well format at 5000 cells per well in a volume of 100 μl per well using the mIL-3 free media.
IL-TIF protein (SEQ ID NO:3) was diluted to 200 pg/ml in mIL-3 free media. Zcytor16-Fc4 fusion protein (described herein) was diluted to 1 μg/ml in the mIL-3 free/IL-TIF media on the top row of the plate, and then diluted serially 1:2 down the remaining 7 rows on the 96-well plate, leaving a volume of 100 μl in each well. This was then added to the 100 μl of cells, for a final IL-TIF concentration of 100 pg/ml in all wells, and final Zcytor16-Fc4 concentrations of approximately […], 0.016, and 0.008 μg/ml in a total assay volume of 200 μl. CRF2-4/zcytor11-Fc4 was diluted to 8 μg/ml in the mIL-3 free/IL-TIF media on the top row of the plate, and then diluted serially 1:2 down the remaining 7 rows on the 96-well plate, leaving a volume of 100 μl in each well. This was then added to the 100 μl of cells, for a final IL-TIF concentration of 100 pg/ml in all wells, and final CRF2-4/zcytor11-Fc4 concentrations of approximately […], 0.25, 0.125 and 0.063 μg/ml, in a total assay volume of 200 The assay plates were incubated at 37° C., 5% CO2 for 4 days at which time Alamar Blue (Accumed, Chicago, Ill.) was added at […]. Plates were again incubated at 37° C., 5% CO2 for 16 hours. Alamar Blue gives a fluourometric readout based on number of live cells, and is thus a direct measurement of cell proliferation in comparison to a negative control. Plates were read on the Wallac Victor 2 1420 Multilabel Counter (Wallac, Turku, Finland) at wavelengths 530 (Excitation) and 590 (Emmssion). […] IL-TIF alone stimulated the cells 13-fold over background.

Molecule: dextran sulfate sodium [DSS]
- histopathology screening score ([1]; day 2): 8.8
- histopathology screening score ([1]; day 7): 21
- histopathology screening score ([1]; day 10): 18
- colon lengths vs non-treated controls ([1]; days 7 and 10): somewhat shorter

- skin histology (IL-TIF [2]; IL-TIF at 2.5, 5, 10 μg/day): epidermal thickening
- Average Acanthosis (IL-TIF [2]; pump 2.5 μg IL-TIF/day + 100 μL vehicle (3 injections)): 1.1
- Average Acanthosis (IL-TIF [2]; pump 5 μg IL-TIF/day + 100 μL vehicle (3 injections)): 2.0
- Average Acanthosis (IL-TIF [2]; pump 10 μg IL-TIF/day + 100 μL vehicle (3 injections)): 2.0
B1: IL-TIF: pro-inflammatory cytokine polypeptide, SEQ ID NO:3; also designated IL-22 (protein, listed as Homo sapiens)
chain: T2 sequence (Q9GZX6 13-179 limits assumed)
- % Cytotoxicity (K-562 cells; 100 ng/ml): 16.2%
- % Cytotoxicity (K-562 cells; 300 ng/ml): 32%
- Average Acanthosis ([3]; 0.24 μg IL-TIF/day, 14 days): 2.2
- Measured Thickness ([3]; 2.4 μg IL-TIF/day, 14 days): 67.5 pixels
- Average Acanthosis ([3]; 2.4 μg IL-TIF/day, 14 days): 2.4
- Average Acanthosis ([3]; 24 μg IL-TIF/day, 14 days): 3.0
- skin histology ([3]; 2.4 and 24 μg/day): epidermal thickening
- cell infiltrates ([3]; not observed in vehicle treated controls): mononuclear cell infiltrates in the epidermis

- concentrations completely inhibiting proliferation (IL-TIF [4]): 8 µg/mL
- concentrations partially inhibiting proliferation (IL-TIF [4]): 0.125 to 4 µg/mL
- inhibition of the proliferative effect of IL-TIF (IL-TIF [4]): much weaker inhibition
- inhibition at lowest concentration (IL-TIF [4]; 63 ng/ml): barely detectable
B2: CRF2-4/zcytor11-Fc4: secreted heterodimer of extracellular domains of hzcytor11 and CRF2-4, each fused to Fc4 (protein)
chain 1: HAPEDPSDLLQHVKFQSSNFENILTWDSGPEGTPDTVYSIEYKTYGERDWVAKKGCQRITRKSCNLTVETGNLTELYYARVTAVSAGGRSATKMTDRFSSLQHTTLKPPDVTCISKVRSIQMIVHPTPTPIRAGDGHRLTLEDIFHDLFYHLELQVNRTYQMHLGGKQREYEFFGLTPDTEFLGTIMICVPTWAKESAPYMCRVKTLPDRTWTGSGSGSGSEPRSSDKTHTCPPCPAPEAEGAPSVFLFPPKPKDTLMISRTPEVTCVVVDVSHEDPEVKFNWYVDGVEVHNAKTKPREEQYNSTYRVVSVLTVLHQDWLNGKEYKCKVSNKALPSSIEKTISKAKGQPREPQVYTLPPSRDELTKNQVSLTCLVKGFYPSDIAVEWESNGQPENNYKTTPPVLDSDGSFFLYSKLTVDKSRWQQGNVFSCSVMHEALHNHYTQKSLSLSPGKLVPRGSGSGGEYMPME
chain 2: MVPPPENVRMNSVNFKNILQWESPAFAKGNLTFTAQYLSYRIFQDKCMNTTLTECDFSSLSKYGDHTLRVRAEFADEHSDWVNITFCPVDDTIIGPPGMQVEVLDDSLHMRFLAPKIENEYETWTMKNVYNSWTYNVQYWKNGTDEKFQITPQYDFEVLRNLEPWTTYCVQVRGFLPDRNKAGEWSEPVCEQTTHDETVPSGSGSGSGSEPRSSDKTHTCPPCPAPEAEGAPSVFLFPPKPKDTLMISRTPEVTCVVVDVSHEDPEVKFNWYVDGVEVHNAKTKPREEQYNSTYRVVSVLTVLHQDWLNGKEYKCKVSNKALPSSIEKTISKAKGQPREPQVYTLPPSRDELTKNQVSLTCLVKGFYPSDIAVEWESNGQPENNYKTTPPVLDSDGSFFLYSKLTVDKSRWQQGNVFSCSVMHEALHNHYTQKSLSLSPGKGSGGHHHHHH
modifications: left off: small tags and cut ends
notes: secreted heterodimer of extracellular domains of hzcytor11 and CRF2-4, each fused to Fc4
